This assay concerns the target T1, Tsr2-N (recombinant, binding assays) (S. cerevisiae (yeast), UniProt Q06672 1-152).
T1 chain: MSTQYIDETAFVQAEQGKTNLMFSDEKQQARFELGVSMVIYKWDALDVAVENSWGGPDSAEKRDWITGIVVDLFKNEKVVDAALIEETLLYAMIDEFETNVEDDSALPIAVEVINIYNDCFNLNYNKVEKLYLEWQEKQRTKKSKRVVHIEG
As to the kind of experiment: ITC. A general note: Isothermal titration calorimetry measures the heat released or taken up as one component is titrated into another.

As usually defined, the Kd is the equilibrium constant for the complex coming apart. In the case of RPRFNRENKVSPADAAKKAL [ESS2 peptide], the Kd turned out to be 720 nM.

The values are drawn from paper PMC6131548 (2018).
